According to US20230031280A1, “GLP-2 FUSION POLYPEPTIDES AND USES FOR TREATING AND PREVENTING GASTROINTESTINAL CONDITIONS” (SHIRE-NPS PHARMACEUTICALS, INC., priority 2017, published 2023):
pKd: −log10 of the molar value.

What was measured:
[1] = SEC-MALS (Sepax Zenix C-150) peak distribution; format: physicochemical
Method: A SEC-MALS assay was performed to determine the primary state (main peak) and its molecular weight. […] The GLP-2 peptibody O (albumin fusion) eluted at a molecular weight indicative of a monomer.
(§1) Stability analysis was then performed using SEC-MALS and NanoDSF. For SEC-MALS, a Sepax Zenix C-150 column was used. The mobile phase buffer was 1× PBS with a final concentration of 400 mM NaCl. The flow rate was 0.8 mL per minute. 20 micrograms of total protein was injected. For NanoDSF, 10 microliters of sample was used, without normalization of the samples.
as §1

[2] = Cynomolgus monkey pharmacokinetic study; format: in vivo, cynomolgus monkeys; conditions: 0.75 mg/kg
Method: Pharmacokinetics studies of teduglutide, GLP-2 Peptibody B and GLP-2 Peptibody K were formed in cynomolgus monkeys with citrulline assayed as a biomarker of GLP-2 concentration. In the study, 12.5 nmol/kg teduglutide was administered subcutaneously to a group of 6 male cynomolgus monkeys at day 1. Then for one set of 2 monkeys, 25 nmol/kg GLP-2 Peptibody B was administered intravenously at day 7, day 21, day 28, day 35, and day 42. For another set of 3 monkeys, 25 nmol/kg GLP-2 Peptibody B was administered subcutaneously at day 7, day 21, day 28, day 35, and day 42. For another set of monkeys, 5 nmol/kg GLP-2 Peptibody K was administered intravenously (2 monkeys) and subcutaneously (3 monkeys) at day 7, day 21, day 28, day 35, and day 42. For another set of monkeys, 25 nmol/kg GLP-2 Peptibody K was administered subcutaneously (3 monkeys) and intravenously (2 monkeys) at day 7, day 21, day 28, day 35, and day 42.

[3] = Projection of intravenous and subcutaneous PK parameters for humans; parameters: species or system human
Method: While a dose of 30 μg/kg once weekly (QW) is projected from the cynomolgus monkey PK data, the dose should be ten times higher (300 μg/kg) to adjust for the difference in in vivo potency.

[4] = Rat pharmacokinetics, intravenous dosing; format: in vivo, Sprague-Dawley rats; conditions: single dose 1 mg/ml
Method: (§2) In the rat, four pharmacokinetic parameters were measured for Gattex® (a GLP-2 peptide having the A2G mutation): CL, Vc, Vt and Q. The same pharmacokinetic parameters were also measured for GLP-2 peptibodies A, B, E, J, K, L, M, O and P. The data is shown in Table 4. Male Sprague-Dawley rats (3 animals per group) were injected intravenously either via a jugular vein or tail vein catheter. A singles dose of test article was injected at a dose level of 1 mg/ml. The test articles were formulated in PBS pH 7.4 at a concentration of Blood samples were taken 0.083, 0.167, 0.33, 0.5, 1, 2, 6, 24, 48, 72, 120, 168, 240, and 336 hours post dose. Blood samples were collected into heparinized tubes and centrifuged for 5 minutes at 2000 xg within 10 minutes of collection. 100 μL of plasma were transferred to a 1.5 ml Eppendorf tube containing 2 μL of 50 mM PMSF. After mixing, the plasma samples were frozen at −80° C. until analysis.

[5] = Rat pharmacokinetics, subcutaneous dosing; format: in vivo, Sprague-Dawley rats; conditions: single dose 1 mg/ml
Method: as §2, with “5.” for “4.”, “subcutaneously into the intra-scapular region of the animal.” for “intravenously either via a jugular vein or tail vein catheter.”, “[…]” for “1.5”, “mixing” for “mixing,”, “analysis. Meso Scale Discovery (MSD) ELISA was undertaken to assay for the concentration of the GLP-2 peptibodies.” for “analysis.”
A sandwich immunoassay was developed using either an anti-Human IgG1 Fc antibody or an anti-human albumin antibody for capture of the peptibody and a sulfotag labeled anti GLP-2 antibody for detection.

[6] = NanoDSF melting temperature / thermal stability; format: physicochemical
Method: Each of the GLP-2 peptibodies was tested by determining melting temperature with nanodifferential scanning fluorimetry (NanoDSF). NanoDSF is a measurement of protein stability over a range of temperatures, with a temperature ramp employed. The stability of tryptophan is measured by fluorescence, as reflected in a ratio of fluorescence at 350 nm to fluorescence at 330 nm. From the assay, one or more melting temperatures are determined. Because a protein in a certain state is understood to have a melting temperature, the number of melting temperatures observed reflects the number of different states.
as §1, §1

[7] = biological target: T1, hFcRn (extracellular domain of the FcRN) (Homo sapiens, UniProt P55899); experiment: FcRn binding by surface plasmon resonance (Biacore)
T1 construct: made in house
Description: Binding to the Fc neonatal receptor (FcRN) allows for recycling of the molecules and leads to an extended in vivo serum half-life of the Fc fusion proteins. Recycling occurs as the molecules are passively taken into the cells and the pH of the endosomes is lower. That leads to binding of the Fc portion of the molecule to the FcRN. When the FcRN recycles back to the surface of the cell, the pH is then neutral and the protein is released back into the serum.
Binding to the extracellular domain of the FcRN was measured by surface plasmon resonance (SPR) using a Biacore system. Direct immobilization with FcRn was achieved via amine coupling of a CM5 chip with FcRn under the following conditions: • i) hFcRn (expressed and purified in house) is diluted in Acetate buffer pH 5.0 to 5 μg/mL. • ii) Immobilize 5 μg/mL of FcRn with target of 500 RU on CM5 chip in PBS pH 7.0 • iii) Final response 454 RU • iv) Running buffer: PBS-P+, pHed to 5.5
The kinetic binding study was done using the following protocol. Samples were diluted in PBS-P+ to 50, 25, 12.5, 6.25, 3.125, 1.56, 0.78, 0.39, 0 nM. The parameters were set as follows: • i) Association and Dissociation 300 s at Flow rate 30 μL/min • ii) Regeneration with 25 mM Tris, 150 mM NaCl pH 8.0 40 s at 60 μL/min
A measurement of the binding of the GLP-2 peptibodies to the Fc neonatal receptor (FcRN) was undertaken at pH 5.5 and pH 7.4.

T1 sequence (P55899 24-297 limits assumed): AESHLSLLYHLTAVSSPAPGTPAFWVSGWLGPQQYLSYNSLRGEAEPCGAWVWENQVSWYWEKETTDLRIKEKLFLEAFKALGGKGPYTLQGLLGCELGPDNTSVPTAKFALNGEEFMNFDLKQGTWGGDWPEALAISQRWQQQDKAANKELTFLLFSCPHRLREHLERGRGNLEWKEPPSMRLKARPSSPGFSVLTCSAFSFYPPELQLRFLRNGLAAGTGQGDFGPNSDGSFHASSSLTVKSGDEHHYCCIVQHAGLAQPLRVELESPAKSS
T1 sequence (P61769 21-119 partner): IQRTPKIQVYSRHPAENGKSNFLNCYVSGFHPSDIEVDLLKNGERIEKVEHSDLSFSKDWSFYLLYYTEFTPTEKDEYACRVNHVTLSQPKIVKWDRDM

Question: With “GLP-2 peptibody B: GLP-2[A2G]-GGGGG linker-IgG1 Fc (LALA) with C-terminal lysine; SEQ ID NO: 4” as the substance, how does the “SEC-MALS Zenix C-150 main peak” value [1] read?
Answer: 85% main peak, 158,800 g/mol

Question: What about the CL ([2]; MDPK, intravenous) of the same substance?
Answer: 0.417 mL/h/kg

Question: What about the Q ([2]; MDPK, intravenous) of the same substance?
Answer: 1.2 mL/h/kg

Question: And the Vc ([2]; MDPK, intravenous)?
Answer: 0.0187 L/kg

Question: And the Vt ([2]; MDPK, intravenous)?
Answer: 0.0329 L/kg

Question: And the CL/F ([2]; MDPK, subcutaneous)?
Answer: 0.737 mL/h/kg

Question: What about the Vc ([2]; MDPK, subcutaneous) of the same substance?
Answer: 0.094 L/kg

Question: And the “association constant (ka)” value ([2]; MDPK, subcutaneous)?
Answer: 1.59 day⁻¹

Question: And the CL ([2]; SDPK, intravenous)?
Answer: 0.396 mL/h/kg

Question: What about the Q ([2]; SDPK, intravenous) of the same substance?
Answer: 1.11 mL/h/kg

Question: And the Vc ([2]; SDPK, intravenous)?
Answer: 0.0171 L/kg

Question: And the Vt ([2]; SDPK, intravenous)?
Answer: 0.0276 L/kg

Question: And the CL/F ([2]; SDPK, subcutaneous)?
Answer: 0.737 mL/h/kg

Question: And the Vc ([2]; SDPK, subcutaneous)?
Answer: 0.0924 L/kg

Question: What about the “association constant (ka)” value ([2]; SDPK, subcutaneous) of the same substance?
Answer: 1.52 day⁻¹

Question: And the Vc [3]?
Answer: 0.0494 L/kg

Question: What about the Vt [3] of the same substance?
Answer: 0.0425 L/kg

Question: What about the ka [3] of the same substance?
Answer: 2.43 day⁻¹

Question: And the “CL (value in parentheses)” value ([3]; exponent on CL 0.85, monkey 3.5 kg, human 70 kg)?
Answer: 1.04 mL/h/kg

Question: What about the CL ([3]; first value of cell) of the same substance?
Answer: 1.63 mL/h/kg

Question: What about the F ([3]; first value of cell) of the same substance?
Answer: 98%

Question: And the Q ([3]; first value of cell)?
Answer: 1 mL/h/kg

Question: What about the “F (value in parentheses)” value ([3]; value in parentheses) of the same substance?
Answer: 60%

Question: What about the “Q (value in parentheses)” value ([3]; value in parentheses) of the same substance?
Answer: 0.642 mL/h/kg

Question: What about the CL [4] of the same substance?
Answer: 2 mL/h/kg

Question: And the Q [4]?
Answer: 2.42 mL/h/kg

Question: And the Vc [4]?
Answer: 0.031 L/kg

Question: What about the Vt [4] of the same substance?
Answer: 0.076 L/kg

Question: And the CL [5]?
Answer: 1.79 mL/h/kg

Question: And the Q [5]?
Answer: 2.17 mL/h/kg

Question: What about the Vc [5] of the same substance?
Answer: 0.073 L/kg

Question: And the Vt [5]?
Answer: 0.068 L/kg

Question: What about the ka [5] of the same substance?
Answer: B (0.45 ka/day,

Question: And the “NanoDSF melting temperature 1” value ([6]; first transition)?
Answer: 1 = 67.1 °C

Question: What about the “NanoDSF melting temperature 2” value ([6]; second transition) of the same substance?
Answer: 2 = 79.9 °C

Question: What about the pKd ([7]; pH 5.5) of the same substance?
Answer: 8.77

Question: What about the “FcRN KD at pH 7.4” value ([7]; pH 7.4) of the same substance?
Answer: No binding in range tested.
